The test addresses T1, human galectin-9 CRD2 domain (human, UniProt O00182 227-355, limits assumed).
T1 construct: domain: CRD2; also called human CRD2 domain of galectin-9
The test can be described thus: ELISA; antibody titrated over immobilized Galectin-9 CRD2, saturation curve.

T1 sequence (O00182 227-355 limits assumed): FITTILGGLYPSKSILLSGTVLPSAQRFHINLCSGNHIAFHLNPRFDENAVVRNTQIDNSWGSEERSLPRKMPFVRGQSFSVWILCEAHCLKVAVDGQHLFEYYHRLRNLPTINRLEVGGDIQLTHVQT

B1: anti-Galectin-9 antibody G9.2-17 (IgG4) (antibody, V domains shown)
VH: EVQLVESGGGLVQPGGSLRLSCAASGFTVSSSSIHWVRQAPGKGLEWVAYISSSSGYTYYADSVKGRFTISADTSKNTAYLQMNSLRAEDTAVYYCARYWSYPSWWPYRGMDYWGQGTLVTVSS
VL: DIQMTQSPSSLSASVGDRVTITCRASQSVSSAVAWYQQKPGKAPKLLIYSASSLYSGVPSRFSGSRSGTDFTLTISSLQPEDFATYYCQQSSTDPITFGQGTKVEIKR
notes: Human IgG4 with S228P (EU); also called G9.2-17(Ig4); G9.2-17 hIgG4 Fab Arm Exchange mut
Consider B1, for which the Kd – broadly, the constant that tells how readily two partners part at equilibrium – is < 1 nM.

The record behind these values is patent publication US20240109968A1 (NEW YORK UNIVERSITY, published 2024).
